Data: patent publication US20240376204A1

Biological target: human PVRIG expressed on cells (human) (UniProt Q6DKI7)
Experiment: cell-based or functional assay

human PVRIG expressed on cells (human), sequence (Q6DKI7 41-326 limits assumed, form in doubt): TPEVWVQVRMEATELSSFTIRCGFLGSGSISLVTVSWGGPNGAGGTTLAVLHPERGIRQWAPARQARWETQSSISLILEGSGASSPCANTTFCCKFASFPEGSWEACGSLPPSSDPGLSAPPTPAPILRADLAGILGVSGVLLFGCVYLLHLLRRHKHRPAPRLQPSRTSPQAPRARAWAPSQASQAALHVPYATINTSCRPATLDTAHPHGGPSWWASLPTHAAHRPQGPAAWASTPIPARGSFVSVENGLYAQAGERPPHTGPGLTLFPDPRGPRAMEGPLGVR

IFNγ, mixed lymphocyte reaction, 20 nM antibody: 74 pg/mL
IFNγ, mixed lymphocyte reaction, 100 nM antibody: 89 pg/mL
Substance: hIgG4 isotype control (antibody)
Killing activity (%) of NK92 on K562, 4 nM antibody: 11.2%
Killing activity (%) of NK92 on K562, 20 nM antibody: 11.7%
Killing activity (%) of NK92 on K562, 100 nM antibody: 9.2%
